# Source: patent EP4714976A1
# B1: 2B1 scFv-Fc (Fc fusion)
# chain: EVQLQQSGAELVKPGASVKMSCKASGYTFASYNLHWVKQTPGQGLEWIGLIYPENGDTSYNQKFKGKATLTADKSSSTAYIQLSSLTSEDSAVYFCARGGFDYWGQGTSLTVSSGGGGSGGGGSGGGGSDIQMIQSPASLSVSVGETVTITCRASENIYSNLAWYQQKQGKSPQLLVYNAKTLADGVPSRFSGSGSGTQYSLKINSLQPEDFGSYYCQHFWSTPYTFGGGTKLEIKESKYGPPCPPCPAPEAAGGPSVFLFPPKPKDTLMISRTPEVTCVVVDVSQEDPEVQFNWYVDGVEVHNAKTKPREEQFNSTYRVVSVLTVLHQDWLNGKEYKCKVSNKGLPSSIEKTISKAKGQPREPQVYTLPPSQEEMTKNQVSLTCLVKGFYPSDIAVEWESNGQPENNYKTTPPVLDSDGSFFLYSKLTVDKSRWQEGNVFSCSVMHEALHNHYTQKSLSLSLG
# B2: 3A12 scFv-Fc (Fc fusion)
# chain: EVQLQQSGAELVKPGASVKMSCKASGYTFSFYNVHWVRQTPGQGLEWIGLIYPDNGDTSYNQKFKAKATLTADKSSSAAYMQLSSLTSEDSAVYYCARGGFDYWGQGTSLTVSSGGGGSGGGGSGGGGSDIVMTQSHKFMSTSVGDRVNITCKASQDVSTAVAWYQQKPGQSPKLLIYSASYRYSGVPDRFTGSGSGTDFTFTISSVQAEDLAVYYCQQHYSTPYTFGGGTKLEMKESKYGPPCPPCPAPEAAGGPSVFLFPPKPKDTLMISRTPEVTCVVVDVSQEDPEVQFNWYVDGVEVHNAKTKPREEQFNSTYRVVSVLTVLHQDWLNGKEYKCKVSNKGLPSSIEKTISKAKGQPREPQVYTLPPSQEEMTKNQVSLTCLVKGFYPSDIAVEWESNGQPENNYKTTPPVLDSDGSFFLYSKLTVDKSRWQEGNVFSCSVMHEALHNHYTQKSLSLSLG
# B3: 3E7 scFv-Fc (Fc fusion)
# chain: QVQLQQSGAELVKPGASVKMSCKASGYTFTIYNIHWVRQTPGQGLEWIGLIYPDNGDTSYNQKFKAKATLTADKSSSTAYMQLSSLTSEDSAVYYCARGGFDYWGQGTTLTVSSGGGGSGGGGSGGGGSNIVMTQSQKFMSTSVGDRVSVTCKASQNVGTNVAWYQQKPGQSPKALIYSASYRYSGVPDRFTGSGSGTDFTLTISGVQAEDLADYYCQQHYNTPYTFGGGTKLEIKESKYGPPCPPCPAPEAAGGPSVFLFPPKPKDTLMISRTPEVTCVVVDVSQEDPEVQFNWYVDGVEVHNAKTKPREEQFNSTYRVVSVLTVLHQDWLNGKEYKCKVSNKGLPSSIEKTISKAKGQPREPQVYTLPPSQEEMTKNQVSLTCLVKGFYPSDIAVEWESNGQPENNYKTTPPVLDSDGSFFLYSKLTVDKSRWQEGNVFSCSVMHEALHNHYTQKSLSLSLG
# B4: 3C9 scFv displayed on phage (scFv)
# scFv: EIQLQQSGAELVKPGASVKMSCKASGYIFRYYNMHWVKRTPGQGLEWIGLIYPDNGDTSYNQKFKGKATLTADTSSSTAYMQLSSLTSEDSAVYYCARGGLDYWGQGTTLTVSSGGGGSGGGGSGGGGSDIQMIQSPASLSASVGETVTITCGASENIYGALNWYQRKQGKSPQLLIYGATNLADGMSSRFSGSGSGRQYSLKISSLHPDDVATYYCQNVLSTPYTFGGGTKLEIK
# What was measured:
# [1] = molecular target: recombinant mouse FGFR2b (mouse) (UniProt P21803); test: ELISA, antibody 1ug/mL
# Chain of recombinant mouse FGFR2b (mouse) (P21803 22-377): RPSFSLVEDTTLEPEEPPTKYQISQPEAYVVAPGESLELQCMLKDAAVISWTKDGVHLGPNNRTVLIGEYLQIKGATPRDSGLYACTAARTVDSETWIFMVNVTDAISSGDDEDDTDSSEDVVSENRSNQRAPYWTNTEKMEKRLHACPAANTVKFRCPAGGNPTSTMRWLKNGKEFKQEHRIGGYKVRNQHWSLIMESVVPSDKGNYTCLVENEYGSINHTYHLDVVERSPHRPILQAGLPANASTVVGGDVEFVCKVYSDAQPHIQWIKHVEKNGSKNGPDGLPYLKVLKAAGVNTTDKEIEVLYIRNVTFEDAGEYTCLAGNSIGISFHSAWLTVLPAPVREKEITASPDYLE
# [2] = molecular target: recombinant mouse FGFR2b (mouse) (UniProt P21803); test: BLI, antibody on AHC2 sensor
# FGFR1 (acro) = FGFR1 (acro) (UniProt P11362); test: ELISA, antibody 10 µg/mL
# Chain of FGFR1 (acro) (P11362 22-376): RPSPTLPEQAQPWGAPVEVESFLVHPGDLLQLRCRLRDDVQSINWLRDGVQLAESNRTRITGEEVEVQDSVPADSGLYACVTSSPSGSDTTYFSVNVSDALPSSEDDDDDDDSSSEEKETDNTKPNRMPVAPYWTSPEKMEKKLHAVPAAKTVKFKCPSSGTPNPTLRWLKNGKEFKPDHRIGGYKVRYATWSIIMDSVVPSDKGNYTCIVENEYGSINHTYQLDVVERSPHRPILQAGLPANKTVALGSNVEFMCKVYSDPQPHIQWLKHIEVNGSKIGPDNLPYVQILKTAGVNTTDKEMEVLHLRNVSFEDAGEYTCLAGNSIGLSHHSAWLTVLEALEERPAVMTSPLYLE
# [3] = molecular target: extracellular domain of the FGFR2b protein (NP_075259.4) (UniProt P21802); test: phage ELISA
# Chain of extracellular domain of the FGFR2b protein (NP_075259.4) (P21802 other isoform, or with tags, fused parts or gaps): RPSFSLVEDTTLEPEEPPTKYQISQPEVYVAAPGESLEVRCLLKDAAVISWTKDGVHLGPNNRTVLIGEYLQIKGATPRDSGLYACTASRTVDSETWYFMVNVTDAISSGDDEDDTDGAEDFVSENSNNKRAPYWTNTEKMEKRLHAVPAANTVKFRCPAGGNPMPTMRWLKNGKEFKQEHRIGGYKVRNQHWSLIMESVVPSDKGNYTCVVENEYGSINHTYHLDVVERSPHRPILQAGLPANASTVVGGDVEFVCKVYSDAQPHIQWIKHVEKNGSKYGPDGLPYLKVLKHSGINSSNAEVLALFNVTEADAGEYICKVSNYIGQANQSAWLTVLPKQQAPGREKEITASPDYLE
Binder,OD (450 nm) value [1],Kd [2] [µM],koff [2] [s⁻¹],kon [2] [M⁻¹ s⁻¹],OD (450 nm) value (FGFR1 (acro)),OD (450 nm) value [3]
B1,2.72,0.023,0.00126,54800,0.076,–
B2,2.91,0.0107,0.000485,45400,0.076,–
B3,2.29,0.0409,0.00175,42800,0.093,–
B4,–,–,–,–,–,2.08
